# Measured values as given in patent US12297265B2, “Antibody and use thereof” (SICHUAN KELUN-BIOTECH BIOPHARMACEUTICAL CO., LTD., priority 2018, dated 2025).
# Legend:
# [1] = tested on: KATOIII-Claudin 18.2 cells; test: NK cell mediated ADCC on KATOIII-Claudin 18.2 cells (LDH); type: cell-based; settings: KATOIII-Claudin 18.2 target cells, NK92MI-CD16a effector cells
# Description: The steps were as follows: HEK293T-Claudin 18.2, L929-Claudin 18.2, KATOIII-Claudin 18.2 and NUGC-4 cells were harvested and centrifuged followed by adjustment of cell density. 1×10^4/well of cells were plated on a plate and incubated overnight. The medium was removed on the next day. NK92MI-CD16a cells (Huabo Biopharm) were centrifuged, resuspended in MEMA medium and adjusted to 1×10^6/mL, then 50 μL/well cells were added to the corresponding wells. […] For HEK293T-Claudin18.2, L929-Claudin18.2 and KATOIII-Claudin18.2 cells, ten antibody concentrations were tested, starting from 40 μg/mL with 5-fold dilution. For NUGC-4 cells, eleven antibody concentrations were tested, starting from 2 mg/mL with 5-fold dilution. 50 μL/well of the diluted antibodies were added to the corresponding wells and the reactions were left to stand in incubator at 37° C., 5% CO2 and incubated for 5.5h. Lysis buffer was then added to the positive control well and incubated for another 0.5h. 50 μL/well of Lactate Dehydrogenase (LDH) detection agent (DOJINDO LABORATORISE, CK12) were added to the wells and the absorbance at 490 nm were taken every 10 min on a plate reader (MD, SpectraMax M2). The results were imported into Graphpad Prism for curve fitting.
# human Claudin18.2 = human Claudin18.2 (Homo sapiens, UniProt P56856); test: Cellular ELISA on L929-Claudin 18.2 cells; type: binding; set-up: expressed in transfected cells; host or cells: L929, infected with pLVX-IRES-puro lentivirus, puromycin-selected monoclonal line; cells were formaldehyde-fixed for the cellular ELISA
# Description: Human Claudin18.2 is a four transmembrane protein and has a complex structure. Cellular ELISA was thus carried out to maintain the structure of Claudin18.2. The stable cell line L929-Claudin 18.2 constructed in Example 1 were used for detection. Specifically, L929-Claudin 18.2 adherent cells were detached by 2 mM EDTA treatment. The cells were resuspended and adjusted to 2×10^5/mL and 100 μL of the resuspension was plated into 96 well plate and incubated overnight at 37° C. The next day, the media was removed, and the plate was washed with PBS once. 100 μL/well 4% formaldehyde was added to the plate. After 30 min of incubation at room temperature, formaldehyde was removed, followed by washing twice with PBS. Blocking buffer (PBS containing 2% BSA) was then added to the plate at 100 μL/well, and incubated at 37° C. for 2 h. After removal of blocking buffer, 100 μL/well of serially diluted antibodies (starting from 1 μM, with 4-fold dilution, for a total of 11 concentrations) were added to the corresponding wells, which were incubated at 37° C. for 2h afterwards. The plate was washed with 250 μL PBST for 5 times, and was allowed to stand for 2 min each time. 100 μL/well of horseradish peroxidase labeled anti-Human IgG secondary antibody (HRP-anti-Human IgG, Jackson ImmunoResearch, 109-035-003) diluted 1:10000 in PBS (containing 2% BSA) was added to the plate. The plate was incubated at 37° C. for 1 h and washed with 250 μL PB ST 6 times, wherein the plate was allowed to stand for 2 min each time. 100 μL/well of TMB solution (Thermo, 34029) was added. The reactions were incubated at 37° C. for 20 min and stopped with 50 μL 2 mol/L H2504. The absorbance at 450 nm was read on a plate reader (MD, SpectraMax M2) and the results were subjected to curve fitting by Graphpad Prism.
substance,measurement,setting,value
"IMAB362: Zolbetuximab (IMAB362) developed by Astellas, human-mouse chimeric IgG1 antibody targeting Claudin 18.2; control antibody, sequences from CN 101312989 B [reference compound]",Max. Cytotoxicity,[1],49%
same,Max Signal Value (OD450),human Claudin18.2; Table 8 experiment,0.82 OD450
same,Max Signal Value (OD450),human Claudin18.2; Table 9 experiment,0.53 OD450
